Measured values taken from patent publication US20220064286A1 (Genentech, published 2022).
Changes are numbered by the printed parent chain. Names may count otherwise. Each block holds one binder with its values, some of them ahead of it.

Key:
human TIGIT protein [1] = target: T1, human TIGIT protein (human, UniProt Q495A1 22-141, limits assumed); test: SPR, against h7E7.L1H1 (implied)
T1 construct: Recombinant protein (Genentech) used in ELISA screening and as SPR analyte; also called TIGIT antigen
T1 sequence: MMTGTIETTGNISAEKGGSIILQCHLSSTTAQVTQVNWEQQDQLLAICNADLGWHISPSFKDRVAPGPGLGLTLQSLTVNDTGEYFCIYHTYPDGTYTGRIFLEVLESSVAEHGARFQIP
Protocol: (§1) Briefly, a series S CM5 biosensor chip was activated with N-ethyl-N′-(3-dimethylaminopropyl)-carbodiimide hydrochloride (EDC) and N-hydroxysuccinimide (NHS) reagents according to the supplier's (GE Healthcare Biosciences, Piscataway, N.J.) instructions, and a human antibody capture kit was applied to couple goat anti-human Fc IgGs in order to achieve approximately 10,000 response units (RU) on each flow cell, followed by blocking un-reacted groups with 1M ethanolamine.
(§2) (flow rate: 30 μl/min) with no regeneration between injections. The sensorgrams were recorded and evaluated by BIAcore™ T200 Evaluation Software (version 2.0) after subtraction of reference cell signal. Association rates (kₒₙ) and dissociation rates (koff) were calculated using a simple one-to-one Langmuir binding model. The equilibrium dissociation constant (KD) was calculated as the ratio koff/kₒₙ.
(§3) The first humanized versions, h6B2, L1H1, h10A5.L1H1, h7E7, L1H1, and h15C8.L1H1, which contain both rat CDRs and framework residues at Vernier positions, and the fully humanized versions, h6B2.L2H5, h10A5.L4H4, h7E7.L5H9, and h15C8.L5H9, which contain only rat CDRs were subject to BIAcore affinity measurement by comparison with original rat antibodies, rat6B2, rat10A5, rat7E7 and rat 15C8. For binding affinity determinations of TIGIT antibodies against human TIGIT, cynomolgus monkey TIGIT and human alanine-scanned TIGIT mutants by single-cycle kinetics, Surface Plasmon Resonance (SRP) measurement with a BIACORE™-T200 instrument was used, as described above.

[2] = target: T2, cynomolgus monkey (cyno) TIGIT protein (cynomolgus monkey, UniProt A0A7N9I9V4 89-209); test: SPR, against h7E7.L1H1 (implied)
T2 sequence (A0A7N9I9V4 entry or part of it): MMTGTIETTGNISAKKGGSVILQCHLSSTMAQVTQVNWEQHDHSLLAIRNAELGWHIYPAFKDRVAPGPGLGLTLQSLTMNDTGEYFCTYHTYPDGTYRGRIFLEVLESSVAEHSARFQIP
Protocol: as §1, §2, §3

human TIGIT protein [3] = target: T1, human TIGIT protein; test: SPR, captured mAb
[4] = target: T2, cynomolgus monkey (cyno) TIGIT protein; test: SPR, captured mAb
human TIGIT protein [5] = target: T1, human TIGIT protein; test: SPR, against h15C8.L1H1 (implied)
Protocol: as §1, §2, §3

[6] = target: T2, cynomolgus monkey (cyno) TIGIT protein; test: SPR, against h15C8.L1H1 (implied)
Protocol: as §1, §2, §3

hTIGIT mutant Q56A [7] = target: T3, hTIGIT mutant Q56A (human, UniProt Q495A1); test: SPR (BIACORE), N=2
T3 sequence (TIGIT, looked up): T1 sequence with Q35A

hTIGIT mutant E60A [8] = target: T4, hTIGIT mutant E60A (human, UniProt Q495A1); test: SPR (BIACORE), N=2
T4 sequence (TIGIT, looked up): T1 sequence with E39A

hTIGIT mutant N70A [9] = target: T5, hTIGIT mutant N70A (human, UniProt Q495A1); test: SPR (BIACORE), N=2
T5 sequence (TIGIT, looked up): T1 sequence with N49A

hTIGIT mutant H111A [10] = target: T6, hTIGIT mutant H111A (human, UniProt Q495A1); test: SPR (BIACORE), N=2
T6 sequence (TIGIT, looked up): T1 sequence with H90A

hTIGIT mutant Q53A [11] = target: T7, hTIGIT mutant Q53A (human, UniProt Q495A1); test: SPR (BIACORE), N=2
T7 sequence (TIGIT, looked up): T1 sequence with Q32A

hTIGIT mutant L65A [12] = target: T8, hTIGIT mutant L65A (human, UniProt Q495A1); test: SPR (BIACORE), N=2
T8 sequence (TIGIT, looked up): T1 sequence with L44A

hTIGIT mutant T117A [13] = target: T9, hTIGIT mutant T117A (human, UniProt Q495A1); test: SPR (BIACORE), N=2
T9 sequence (TIGIT, looked up): T1 sequence with T96A

hTIGIT mutant I68A [14] = target: T10, hTIGIT mutant I68A (human, UniProt Q495A1); test: SPR (BIACORE), N=2
T10 sequence (TIGIT, looked up): T1 sequence with I47A

human TIGIT protein [15] = target: T1, human TIGIT protein; test: SPR (BIACORE), N=2
hTIGIT mutant Y113A [16] = target: T11, hTIGIT mutant Y113A (human, UniProt Q495A1); test: SPR (BIACORE), N=2
T11 sequence (TIGIT, looked up): T1 sequence with Y92A

hTIGIT mutant Q56A [17] = target: T3, hTIGIT mutant Q56A; test: SPR (BIACORE) KD normalized to WT, N=2
hTIGIT mutant E60A [18] = target: T4, hTIGIT mutant E60A; test: SPR (BIACORE) KD normalized to WT, N=2
hTIGIT mutant N70A [19] = target: T5, hTIGIT mutant N70A; test: SPR (BIACORE) KD normalized to WT, N=2
hTIGIT mutant H111A [20] = target: T6, hTIGIT mutant H111A; test: SPR (BIACORE) KD normalized to WT, N=2
hTIGIT mutant Q53A [21] = target: T7, hTIGIT mutant Q53A; test: SPR (BIACORE) KD normalized to WT, N=2
hTIGIT mutant L65A [22] = target: T8, hTIGIT mutant L65A; test: SPR (BIACORE) KD normalized to WT, N=2
hTIGIT mutant T117A [23] = target: T9, hTIGIT mutant T117A; test: SPR (BIACORE) KD normalized to WT, N=2
hTIGIT mutant I68A [24] = target: T10, hTIGIT mutant I68A; test: SPR (BIACORE) KD normalized to WT, N=2
human TIGIT protein [25] = target: T1, human TIGIT protein; test: SPR (BIACORE) KD normalized to WT, N=2
hTIGIT mutant Y113A [26] = target: T11, hTIGIT mutant Y113A; test: SPR (BIACORE) KD normalized to WT, N=2

B1: h7E7.L1H2 (antibody, V domains shown)
VH: EVQLVQSGAEVKKPGASVKVSCKASGYTFTEYSIYWVRQAPGQRLEWIGRIDPKNGRTYYVDKFKNRATLTADTSASTAYMELSSLRSEDTAVYFCTRIYGFYFDFWGQGTLVTVSS
VL: DIQLTQSPSFLSASVGDRVTITCKGSQNVNKYLVWYQQKPGKAPKLLIYNTDNLQSGIPSRFSGSGSGTEYTLTISSLQPEDFATYFCYQYNNGFTFGQGTKVEIK
notes: VH: I47W against h7E7.L1H1; FR/HVR pieces
fold drop in binding affinity (human TIGIT protein [1]): > 100 fold
fold drop in binding affinity [2]: > 100 fold

B2: h7E7.L5H9 (antibody, V domains shown)
VH: B1 VH with I48M, A68V, L70I, A72R, F95Y, T97A
VL: B1 VL with I58V, Y71F, F87Y
notes: Fully humanized version; FR/HVR pieces
fold drop in binding affinity (human TIGIT protein [1]): > 100 fold
fold drop in binding affinity [2]: > 100 fold
Kd (human TIGIT protein [3]): > 100 nM
Kd [4]: > 100 nM

B3: h7E7.L1H9 (antibody, V domains shown)
VH: B1 VH with I48M, A68V, L70I, A72R, F95Y, T97A
VL: B1 VL
notes: VH: all seven Vernier residues back to human; FR/HVR pieces
fold drop in binding affinity (human TIGIT protein [1]): > 100 fold
fold drop in binding affinity [2]: > 100 fold

B7: h6B2.L2H5 (antibody, V domains shown)
VH: EVTLKESGPALVKPTQTLTLTCTFSGFSLSTYGMGVSWIRQPPGKALEWLASIWWNGNTYYNPSLKSRLTITKDTSKNQVVLTMTNMDPVDTATYYCAHTGGAVITWFAYWGQGTLVTVSS
VL: DIQMTQSPSSLSASVGDRVTITCKASQSVGKNIAWYQQKPGKAPKLLIYYASNRYTGVPSRFSGSGSGTDFTFTISSLQPEDIATYYCQHIYNSPYPFGQGTKVEIK
notes: Fully humanized version; FR/HVR pieces in order
Kd (hTIGIT mutant Q56A [7]): 1.3 nM
Kd (hTIGIT mutant E60A [8]): 2.4 nM
Kd (hTIGIT mutant N70A [9]): 2.8 nM
Kd (hTIGIT mutant H111A [10]): 1.3 nM
Kd (hTIGIT mutant Q53A [11]): 0.9 nM
Kd (hTIGIT mutant L65A [12]): 3 nM
Kd (hTIGIT mutant T117A [13]): 1.1 nM
Kd (hTIGIT mutant I68A [14]): 11.5 nM
Kd (human TIGIT protein [15]): 0.7 nM
Kd (hTIGIT mutant Y113A [16]): 2.5 nM
Kd (human TIGIT protein [3]): 0.48 nM
koff (human TIGIT protein [3]): 0.00222 s⁻¹
kon (human TIGIT protein [3]): 4.65e+06 M⁻¹ s⁻¹
Kd [4]: 0.97 nM
koff [4]: 0.00124 s⁻¹
kon [4]: 1.28e+06 M⁻¹ s⁻¹
Binding affinity drop vs. WT (hTIGIT mutant Q56A [17]): 1.9 fold
Binding affinity drop vs. WT (hTIGIT mutant E60A [18]): 3.4 fold
Binding affinity drop vs. WT (hTIGIT mutant N70A [19]): 4 fold
Binding affinity drop vs. WT (hTIGIT mutant H111A [20]): 1.9 fold
Binding affinity drop vs. WT (hTIGIT mutant Q53A [21]): 1.3 fold
Binding affinity drop vs. WT (hTIGIT mutant L65A [22]): 4.3 fold
Binding affinity drop vs. WT (hTIGIT mutant T117A [23]): 1.6 fold
Binding affinity drop vs. WT (hTIGIT mutant I68A [24]): 16.4 fold
Binding affinity drop vs. WT (human TIGIT protein [25]): 1 fold
Binding affinity drop vs. WT (hTIGIT mutant Y113A [26]): 3.6 fold

The remaining lines, values ahead:

fold drop in binding affinity (human TIGIT protein [5]): > 100 fold
fold drop in binding affinity [6]: > 100 fold
B4: h15C8.L1H9 (antibody, V domains shown)
VH: B1 VH with Y32H, I48M, Y60F, A68V, L70I, A72R, F95Y, T97A, Y100D
VL: B1 VL with N50S
notes: as for B3

fold drop in binding affinity (human TIGIT protein [5]): > 100 fold
fold drop in binding affinity [6]: > 100 fold
B5: h15C8.L1H3 (antibody, V domains shown)
VH: B1 VH with Y32H, V37L, Y60F, A72T, T97A, Y100D
VL: B1 VL with N50S
notes: VH: I47W against h15C8.L1H1; FR/HVR pieces

fold drop in binding affinity (human TIGIT protein [5]): > 100 fold
fold drop in binding affinity [6]: > 100 fold
Kd (human TIGIT protein [3]): > 100 nM
Kd [4]: > 100 nM
B6: h15C8.L5H9 (antibody, V domains shown)
VH: B1 VH with Y32H, I48M, Y60F, A68V, L70I, A72R, F95Y, T97A, Y100D
VL: B1 VL with N50S, I58V, Y71F, F87Y
notes: as for B2
